Data reported in paper PMC7669869 (2020).

B1: AdipoR1 (overexpressed in HEK293 cells) (receptor)
chain: MSSHKGSVVAQGNGAPASNREADTVELAELGPLLEEKGKRVIANPPKAEEEQTCPVPQEEEEEVRVLTLPLQAHHAMEKMEEFVYKVWEGRWRVIPYDVLPDWLKDNDYLLHGHRPPMPSFRACFKSIFRIHTETGNIWTHLLGFVLFLFLGILTMLRPNMYFMAPLQEKVVFGMFFLGAVLCLSFSWLFHTVYCHSEKVSRTFSKLDYSGIALLIMGSFVPWLYYSFYCSPQPRLIYLSIVCVLGISAIIVAQWDRFATPKHRQTRAGVFLGLGLSGVVPTMHFTIAEGFVKATTVGQMGWFFLMAVMYITGAGLYAARIPERFFPGKFDIWFQSHQIFHVLVVAAAFVHFYGVSNLQEFRYGLEGGCTDDTLL
B2: AdipoR2 (overexpressed in HEK293 cells) (receptor)
chain: MNEPTENRLGCSRTPEPDIRLRKGHQLDGTRRGDNDSHQGDLEPILEASVLSSHHKKSSEEHEYSDEAPQEDEGFMGMSPLLQAHHAMEKMEEFVCKVWEGRWRVIPHDVLPDWLKDNDFLLHGHRPPMPSFRACFKSIFRIHTETGNIWTHLLGCVFFLCLGIFYMFRPNISFVAPLQEKVVFGLFFLGAILCLSFSWLFHTVYCHSEGVSRLFSKLDYSGIALLIMGSFVPWLYYSFYCNPQPCFIYLIVICVLGIAAIIVSQWDMFATPQYRGVRAGVFLGLGLSGIIPTLHYVISEGFLKAATIGQIGWLMLMASLYITGAALYAARIPERFFPGKCDIWFHSHQLFHIFVVAGAFVHFHGVSNLQEFRFMIGGGCSEEDAL

Columns and labels:
ADP355 = assay: FRET; table row labelled IC50, legend says Kd
JT006 = JT006 (UniProt Q15848 155-161, Tyr159 was replaced with Ser | Asp was applied to substitute Ala161, unnatural amino acid Nva incorporated (position not given); FITC labeled peptide in the cell imaging); assay: FRET; table row labelled IC50, legend says Kd

| Binder | Kd (ADP355) [nM] | Kd (JT006) [nM] |
| --- | --- | --- |
| B1 | 1100 | 1400 |
| B2 | – | 1200 |
